Two molecules from US20230136228A1 (LAMKAP BIO ALPHA, published 2023) can be followed below.

Experiment [1] has as its target T1, human CEACAM5 (carcinoembryonic antigen, CEA), cell surface (human, UniProt P06731 35-685).
T1 sequence (looked up): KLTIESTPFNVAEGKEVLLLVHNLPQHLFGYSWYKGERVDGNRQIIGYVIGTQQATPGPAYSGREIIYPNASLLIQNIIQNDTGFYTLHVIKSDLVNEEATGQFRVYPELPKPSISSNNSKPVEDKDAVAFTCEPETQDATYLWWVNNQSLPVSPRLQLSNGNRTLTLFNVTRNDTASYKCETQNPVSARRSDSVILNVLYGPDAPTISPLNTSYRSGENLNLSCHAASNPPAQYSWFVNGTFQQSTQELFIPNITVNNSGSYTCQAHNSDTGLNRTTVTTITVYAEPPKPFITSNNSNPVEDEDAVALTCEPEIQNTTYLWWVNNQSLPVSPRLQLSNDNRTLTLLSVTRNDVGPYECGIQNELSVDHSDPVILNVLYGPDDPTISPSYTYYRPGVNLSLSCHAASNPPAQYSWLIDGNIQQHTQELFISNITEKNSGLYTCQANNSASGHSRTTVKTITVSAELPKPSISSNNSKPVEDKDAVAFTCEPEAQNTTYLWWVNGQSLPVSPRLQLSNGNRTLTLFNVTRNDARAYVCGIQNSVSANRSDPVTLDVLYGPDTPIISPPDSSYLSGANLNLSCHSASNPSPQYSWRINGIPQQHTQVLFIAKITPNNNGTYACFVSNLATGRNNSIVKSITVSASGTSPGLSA
Kind of experiment: cell-based or functional assay.

The target in another experiment is T2, human CD3ε (human, UniProt P07766 23-207).
T2 construct: whole, on cells; Present on cells as part of the CD3/TCR complex; also called CD3 epsilon
The experiment in a line: flow cytometry, HUT-78 cells. In general terms: In flow cytometry, cells or beads pass a laser one at a time.

The next experiment deals with T3, human CEACAM8 (human, UniProt P31997 35-320).
T3 construct: whole, on cells
T3 sequence (looked up): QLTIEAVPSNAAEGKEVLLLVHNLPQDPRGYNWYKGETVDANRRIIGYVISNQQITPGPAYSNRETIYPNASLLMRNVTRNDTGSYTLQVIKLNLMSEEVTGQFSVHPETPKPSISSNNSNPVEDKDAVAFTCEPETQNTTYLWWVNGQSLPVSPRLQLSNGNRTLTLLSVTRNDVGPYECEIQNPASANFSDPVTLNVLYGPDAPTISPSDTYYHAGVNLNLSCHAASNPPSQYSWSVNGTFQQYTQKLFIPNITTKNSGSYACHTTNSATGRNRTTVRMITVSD
Kind of experiment: flow cytometry, transfected PEAK cells. The source says:
(§1) Vectors encoding the full-length version of human CEACAM 1, 3, 4, 5, 6, 7, 8, 18, 19, 20 and […] are used to express these proteins at the surface of PEAK and/or CHO cells as described in Example 1. Similarly, vectors encoding the full-length version of cyno CEACAM 5 and 6 are also used to express these proteins at the surface of PEAK and/or CHO cells. Non-transfected PEAK and/or CHO cells are used as negative control. Cells are harvested, counted, checked for viability and resuspended at 3×10⁶ cells/ml in FACS buffer (PBS 2% BSA, 0.1% NaN₃). 100 μl of the cell suspension are distributed in V-bottom 96-well plates (3×10⁵ cells/well). The supernatant is removed by centrifugation 3 minutes at 4° C., 1300 rpm and the cells incubated for 15 minutes at 4° C. with increasing concentrations of the antibody according to the invention. The antibodies carrying the anti-CEACAM5 arms to test are diluted in FACS buffer and the concentration range is 30 pM-500 nM. Cells are washed twice with cold FACS buffer and re-incubated for further 15 minutes at 4° C. with a compatible anti-human IgG secondary antibody. Cells are washed twice with cold FACS buffer and resuspended in 300 μl FACS buffer with 1:1500-diluted TOPRO-3 (Invitrogen). Fluorescence is measured using a FACSCalibur™ (BD Biosciences) or a Cytoflex Platform (Beckman Coulter). Dose-response binding curves are fitted using GraphPad Prism8 software. In the same manner, CEACAM1, CEACAM6 and other CEACAMs can be characterized.
(§2) For the bispecific antibodies AB17L3-1/N, AB71L3-1/N, AB72L3-1/N, AB73L3-1/N the MFI measured for binding to CEACAM5 transfected cells was found between 29000 and 41000 (Table 2). In contrast MFI found by using PEAK cells transfected with CEACAM 1,3,4,6,8 were found below 1000 with the only exception of a strong signal for AB72L3-1/N on CEACAM8 transfected cells. When MFI values obtained on transfected cells expressing any given CEACAM are divided by the values obtained on WT PEAK cells, “factors to PEAK WT” can be calculated (Table 3).

Experiment [2] has as its target T1, human CEACAM5 (carcinoembryonic …). The experiment in a line: flow cytometry, MKN-45 and/or HPAF-II cells.
The next experiment has as its target T4, human CEACAM1 (human, UniProt P13688 35-526).
T4 construct: whole, on cells
T4 sequence (looked up): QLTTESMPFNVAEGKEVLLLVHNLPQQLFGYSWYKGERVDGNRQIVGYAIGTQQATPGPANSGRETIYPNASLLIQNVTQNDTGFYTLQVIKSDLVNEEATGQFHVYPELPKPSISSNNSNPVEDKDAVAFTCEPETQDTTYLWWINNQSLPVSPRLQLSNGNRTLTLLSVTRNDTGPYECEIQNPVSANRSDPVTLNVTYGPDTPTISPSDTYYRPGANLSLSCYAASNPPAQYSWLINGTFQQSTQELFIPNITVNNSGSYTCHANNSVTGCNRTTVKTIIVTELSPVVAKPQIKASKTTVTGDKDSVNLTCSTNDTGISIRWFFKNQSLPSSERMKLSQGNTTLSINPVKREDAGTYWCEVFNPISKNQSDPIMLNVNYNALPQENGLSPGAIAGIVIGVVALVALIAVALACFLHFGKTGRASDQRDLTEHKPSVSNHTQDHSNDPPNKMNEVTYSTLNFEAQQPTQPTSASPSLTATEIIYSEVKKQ
Kind of experiment: flow cytometry, transfected PEAK cells, 10 mcg/ml.
From the text: as §1, §2

A further experiment has as its target T5, human CEACAM3 (human, UniProt P40198 35-252).
T5 construct: whole, on cells
T5 sequence (looked up): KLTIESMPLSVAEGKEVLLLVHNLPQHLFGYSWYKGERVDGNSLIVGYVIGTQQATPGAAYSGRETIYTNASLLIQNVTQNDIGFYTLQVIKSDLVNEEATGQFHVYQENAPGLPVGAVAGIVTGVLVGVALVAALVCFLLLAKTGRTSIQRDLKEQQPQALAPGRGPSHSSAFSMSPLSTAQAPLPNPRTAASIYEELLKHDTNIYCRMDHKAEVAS
The experiment in a line: flow cytometry, transfected PEAK cells, 10 mcg/ml.
From the text: as §1, §2

T2 sequence (P07766 23-207): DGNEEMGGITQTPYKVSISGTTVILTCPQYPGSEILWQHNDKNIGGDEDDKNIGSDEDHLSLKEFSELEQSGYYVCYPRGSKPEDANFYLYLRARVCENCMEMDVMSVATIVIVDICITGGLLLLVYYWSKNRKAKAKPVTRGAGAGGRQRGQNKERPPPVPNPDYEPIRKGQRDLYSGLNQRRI

B1: AB17L3-1/N (bispecific antibody, human IgG1, kappa, lambda, L234A L235A)
heavy: EVQLVESGGGLVQPGGSLKLSCAASGFTFNTYAMNWVRQAPGKGLEWVGRIRSKYNNYATYYADSVKDRFTISRDDSKNTAYLQMNSLKTEDTAVYYCVRHGNFGNSYVSWFAYWGQGTLVTVSSASTKGPSVFPLAPSSKSTSGGTAALGCLVKDYFPEPVTVSWNSGALTSGVHTFPAVLQSSGLYSLSSVVTVPSSSLGTQTYICNVNHKPSNTKVDKRVEPKSCDKTHTCPPCPAPEAAGGPSVFLFPPKPKDTLMISRTPEVTCVVVDVSHEDPEVKFNWYVDGVEVHNAKTKPREEQYNSTYRVVSVLTVLHQDWLNGKEYKCKVSNKALAAPIEKTISKAKGQPREPQVYTLPPSREEMTKNQVSLTCLVKGFYPSDIAVEWESNGQPENNYKTTPPVLDSDGSFFLYSKLTVDKSRWQQGNVFSCSVMHEALHNHYTQKSLSLSPG
light 1: EIVLTQSPATLSLSPGERATLSCRASQSVNSNLNWYQQKPGQAPRLLIYHGSNRATGIPARFSGSGSGTDFTLTISSLEPEDFAVYYCQQFDYFKEHNTFGQGTKVEIKRTVAAPSVFIFPPSDEQLKSGTASVVCLLNNFYPREAKVQWKVDNALQSGNSQESVTEQDSKDSTYSLSSTLTLSKADYEKHKVYACEVTHQGLSSPVTKSFNRGEC
light 2: QTVVTQEPSLTVSPGGTVTLTCRSSTGAVTTSNYANWFQQKPGQAPRGLIGGTNKRAPGTPARFSGSLLGGKAALTLSGAQPEDEAEYYCALWYKQRWVFGGGTKLTVLGQPKAAPSVTLFPPSSEELQANKATLVCLISDFYPGAVTVAWKADSSPVKAGVETTTPSKQSNNKYAASSYLSLTPEQWKSHRSYSCQVTHEGSTVEKTVAPTECS
notes: Kappa-lambda body, lead optimization wave 1
In the case of B1, in experiment [1], the “Killing EC50, HPAFII cells (TDCC, LDH release)” value was 160 pM; the “Killing EC50, LS174T cells (TDCC, LDH release)” value turned out to be 250 pM; the “Killing EC50, MKN45 cells (TDCC, LDH release)” value was 110 pM. Moreover, the binding result in the experiment with human CD3ε is “binds”. Moreover, in the experiment with human CEACAM8, the binding result is recorded as “no binding (tested: 10 mcg/ml)”. Further, the “binding higher than TCB2014 (at 100 nM)” value in experiment [2] is at least 40%. The MFI with human CEACAM1 was 652 MFI. In addition, the MFI in the experiment with human CEACAM3 came to 633 MFI.

B2: AB1L3-1/N (bispecific antibody, human IgG1, kappa, lambda, L234A L235A)
heavy: EVQLVESGGGLVQPGGSLKLSCAASGFTFNTYAMNWVRQAPGKGLEWVGRIRSKYNNYATYYADSVKDRFTISRDDSKNTAYLQMNSLKTEDTAVYYCVRHGNFGNSYVSWFAYWGQGTLVTVSSASTKGPSVFPLAPSSKSTSGGTAALGCLVKDYFPEPVTVSWNSGALTSGVHTFPAVLQSSGLYSLSSVVTVPSSSLGTQTYICNVNHKPSNTKVDKRVEPKSCDKTHTCPPCPAPEAAGGPSVFLFPPKPKDTLMISRTPEVTCVVVDVSHEDPEVKFNWYVDGVEVHNAKTKPREEQYNSTYRVVSVLTVLHQDWLNGKEYKCKVSNKALAAPIEKTISKAKGQPREPQVYTLPPSREEMTKNQVSLTCLVKGFYPSDIAVEWESNGQPENNYKTTPPVLDSDGSFFLYSKLTVDKSRWQQGNVFSCSVMHEALHNHYTQKSLSLSPG
light 1: EIVLTQSPATLSLSPGERATLSCRASQSVNSNLNWYQQKPGQAPRLLIYHGSNRATGIPARFSGSGSGTDFTLTISSLEPEDFAVYYCQQFDLRHEHNTFGQGTKVEIKRTVAAPSVFIFPPSDEQLKSGTASVVCLLNNFYPREAKVQWKVDNALQSGNSQESVTEQDSKDSTYSLSSTLTLSKADYEKHKVYACEVTHQGLSSPVTKSFNRGEC
light 2: QTVVTQEPSLTVSPGGTVTLTCRSSTGAVTTSNYANWFQQKPGQAPRGLIGGTNKRAPGTPARFSGSLLGGKAALTLSGAQPEDEAEYYCALWYKQRWVFGGGTKLTVLGQPKAAPSVTLFPPSSEELQANKATLVCLISDFYPGAVTVAWKADSSPVKAGVETTTPSKQSNNKYAASSYLSLTPEQWKSHRSYSCQVTHEGSTVEKTVAPTECS
notes: Kappa-lambda body: common heavy chain (hIgG1 L234A+L235A+P329A), kappa CEA light chain AB1, lambda CD3 light chain L3-1 (1A4); also called parental KL bispecific antibody
With B2, the binding result with human CEACAM8 is recorded as “no binding (tested: 10 mcg/ml)”. Besides, the MFI with human CEACAM1 amounted to 441 MFI; with human CEACAM3 it was 358 MFI.
